B1: mRNA-decapping enzyme subunit 1 (Saccharomyces cerevisiae), Q12517 (parent)
chain: MTGAATAAENSATQLEFYRKALNFNVIGRYDPKIKQLLFHTPHASLYKWDFKKDEWNKLEYQGVLAIYLRDVSQNTNLLPVSPQEVDIFDSQNGSNNIQVNNGSDNSNRNSSGNGNSYKSNDSLTYNCGKTLSGKDIYNYGLIILNRINPDNFSMGIVPNSVVNKRKVFNAEEDTLNPLECMGVEVKDELVIIKNLKHEVYGIWIHTVSDRQNIYELIKYLLENEPKDSFA

Variants of: B1
Details: with erf3_yeast SUP35, P05453
Chain of erf3_yeast SUP35, P05453 (P05453 whole entry): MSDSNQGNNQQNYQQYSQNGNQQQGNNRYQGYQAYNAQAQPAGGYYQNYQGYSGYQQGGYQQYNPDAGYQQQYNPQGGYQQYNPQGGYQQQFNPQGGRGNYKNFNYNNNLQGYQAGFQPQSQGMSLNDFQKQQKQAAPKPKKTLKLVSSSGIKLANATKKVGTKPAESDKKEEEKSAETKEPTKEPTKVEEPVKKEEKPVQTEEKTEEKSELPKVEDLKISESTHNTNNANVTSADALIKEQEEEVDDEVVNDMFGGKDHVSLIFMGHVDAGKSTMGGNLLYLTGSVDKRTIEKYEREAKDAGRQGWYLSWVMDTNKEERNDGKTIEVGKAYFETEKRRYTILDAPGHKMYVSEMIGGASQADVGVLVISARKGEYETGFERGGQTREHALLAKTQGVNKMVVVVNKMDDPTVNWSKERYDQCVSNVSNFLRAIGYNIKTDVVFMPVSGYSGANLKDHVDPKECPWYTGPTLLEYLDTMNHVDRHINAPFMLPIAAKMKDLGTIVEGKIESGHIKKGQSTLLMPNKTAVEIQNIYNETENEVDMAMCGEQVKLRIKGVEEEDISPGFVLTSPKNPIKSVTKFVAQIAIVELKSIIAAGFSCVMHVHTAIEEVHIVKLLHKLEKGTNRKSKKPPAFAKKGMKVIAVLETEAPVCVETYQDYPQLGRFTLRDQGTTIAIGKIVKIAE
With L38P;S45P the “effect of a mutation on the interaction” value was “decreasing interaction”. With S45P the “effect of a mutation on the interaction” value was “decreasing interaction”.
